We go through 11 variants from IntAct's records for PubMed 31515488.

The labels stand for the following.
B1: TBC1 domain family member 7 (Homo sapiens), Q9P0N9 (parent)
chain: MTEDSQRNFRSVYYEKVGFRGVEEKKSLEILLKDDRLDTEKLCTFSQRFPLPSMYRALVWKVLLGILPPHHESHAKVMMYRKEQYLDVLHALKVVRFVSDATPQAEVYLRMYQLESGKLPRSPSFPLEPDDEVFLAIAKAMEEMVEDSVDCYWITRRFVNQLNTKYRDSLPQLPKAFEQYLNLEDGRLLTHLRMCSAAPKLPYDLWFKRCFAGCLPESSLQRVWDKVVSGSCKILVFVAVEILLTFKIKVMALNSAEKITKFLENIPQDSSDAIVSKAIDLWHKHCGTPVHSS
partner: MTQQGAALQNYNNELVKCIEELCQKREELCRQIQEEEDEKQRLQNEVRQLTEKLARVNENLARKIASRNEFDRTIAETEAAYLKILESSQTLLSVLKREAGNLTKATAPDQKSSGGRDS
B2: Inactive peptidyl-prolyl cis-trans isomerase FKBP6 (Homo sapiens), O75344 (parent)
chain: MGGSALNQGVLEGDDAPGQSLYERLSQRMLDISGDRGVLKDVIREGAGDLVAPDASVLVKYSGYLEHMDRPFDSNYFRKTPRLMKLGEDITLWGMELGLLSMRRGELARFLFKPNYAYGTLGCPPLIPPNTTVLFEIELLDFLDCAESDKFCALSAEQQDQFPLQKVLKVAATEREFGNYLFRQNRFYDAKVRYKRALLLLRRRSAPPEEQHLVEAAKLPVLLNLSFTYLKLDRPTIALCYGEQALIIDQKNAKALFRCGQACLLLTEYQKARDFLVRAQKEQPFNHDINNELKKLASCYRDYVDKEKEMWHRMFAPCGDGSTAGES
partner: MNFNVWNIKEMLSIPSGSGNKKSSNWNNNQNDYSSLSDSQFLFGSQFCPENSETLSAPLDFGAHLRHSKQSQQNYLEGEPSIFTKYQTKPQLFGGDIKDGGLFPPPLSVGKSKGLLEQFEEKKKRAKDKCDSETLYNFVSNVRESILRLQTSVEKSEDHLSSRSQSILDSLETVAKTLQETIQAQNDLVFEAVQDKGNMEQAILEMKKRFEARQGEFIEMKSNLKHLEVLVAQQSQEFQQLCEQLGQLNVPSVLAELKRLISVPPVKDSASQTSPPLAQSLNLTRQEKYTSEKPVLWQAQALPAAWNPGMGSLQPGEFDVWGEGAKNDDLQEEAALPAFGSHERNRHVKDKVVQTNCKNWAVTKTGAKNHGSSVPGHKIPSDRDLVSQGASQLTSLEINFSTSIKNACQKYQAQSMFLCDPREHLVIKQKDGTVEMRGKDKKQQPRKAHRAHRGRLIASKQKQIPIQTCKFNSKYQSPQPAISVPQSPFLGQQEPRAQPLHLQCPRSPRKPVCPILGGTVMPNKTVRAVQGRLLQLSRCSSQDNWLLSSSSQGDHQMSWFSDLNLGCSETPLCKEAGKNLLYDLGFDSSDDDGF
B3: Dendritic cell nuclear protein 1 (Homo sapiens), Q8TF63 (parent)
chain: MHYGAATHIQNSRSHGLETVPGHQRLERGAGGETPEFPGCHSPAPPENFGNELLPLSAPLQGLSEGLYPPGRNKTLPAGVLREGAVQFLHRGLCNSNLSSEASARPSGTQDELHSSRRKTGQTRREGARKHLVCSFRLYPFTVHTVSPGNSHLALYQVFKAVKLCPSETSFFLSRKSLKSSDPWHPPSLSPNSWNRQAGFRAWSSHLISLSLTCSDSQSRRVSSSQQPPLHSLSSHRRAAHVPE
B4: Beta-taxilin (Homo sapiens), Q8N3L3 (parent)
chain: MEANHSEQLSAERQSTPPGDSSSLPSHNGLEKEDGQDSPTPVQPPEKEASVHPDISEELNRQLEDIINTYGSAASTAGKEGSARASEQPENAESPDNEDGDCEETTEEAGREPVASGEPPTVKEPVSNKEQKLEKKILKGLGKEANLLMQNLNKLQTPEEKFDFLFKKYAELLDEHRTEQKKLKLLQKKQVQIQKEKDQLQGEHSRAILARSKLESLCRELQRHNKTLKEEALQRAREEEEKRKEITSHFQSTLTDIQGQIEQQSERNMKLCQENTELAEKLKSIIDQYELREEHLDKIFKHRELQQKLVDAKLEQAQEMMKEAEERHKREKEYLLNQAAEWKLQAKVLKEQETVLQAQLTLYSGRFEEFQSTLTKSNEVFATFKQEMDKTTKKMKKLEKDTATWKARFENCNKALLDMIEEKALRAKEYECFVMKIGRLENLCRALQEERNELHKKIRDAEISEKDDQSQHNSDEEPESNVSVDQEIDAEEVNSVQTAVKNLATAFMIIHHPESTPHQSKETQPEIGSSQESADAALKEPEQPPLIPSRDSESPLPPLTPQAEAEGGSDAEPPSKASNSPAGLGAETQCEGLPVGAQADQASWKPEAEASGQAPQAPTEASLQKMEADVPAPACAAEEHVAAMVPACEPSRQPPRAAAEELPVGASAGPQPRNVADTNLEGVD
partner: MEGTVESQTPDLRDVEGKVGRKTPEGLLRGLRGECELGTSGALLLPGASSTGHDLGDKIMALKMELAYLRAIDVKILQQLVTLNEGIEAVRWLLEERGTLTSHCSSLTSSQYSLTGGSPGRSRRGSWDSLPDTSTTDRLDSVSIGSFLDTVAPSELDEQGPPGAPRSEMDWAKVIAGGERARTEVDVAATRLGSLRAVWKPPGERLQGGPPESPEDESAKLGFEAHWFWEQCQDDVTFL
B5: Microtubule-associated tumor suppressor candidate 2 (Homo sapiens), Q5JR59-3 (parent)
chain: MGHCCCKPYNCLQCLDKTNESALVKEKELSIELANIRDEVAFHTAKCEKLQKEKEELERRFEDEVKRLGWQQQAELQELEERLQLQFEAEMARLQEEHGDQLLSIRCQHQEQVEDLTASHDAALLEMENNHTVAITILQDDHDHKVQELMSTHELEKKELEENFEKLRLSLQDQVDTLTFQSQSLRDRARRFEEALRKNTEEQLEIALAPYQHLEEDMKSLKQVLEMKNQQIHEQEKKILELEKLAEKNIILEEKIQVLQQQNEDLKARIDQNTVVTRQLSEENANLQEYVEKETQEKKRLSRTNEELLWKLQTGDPTSPIKLSPTSPVYRGSSSGPSSPARVSTTPR
partner: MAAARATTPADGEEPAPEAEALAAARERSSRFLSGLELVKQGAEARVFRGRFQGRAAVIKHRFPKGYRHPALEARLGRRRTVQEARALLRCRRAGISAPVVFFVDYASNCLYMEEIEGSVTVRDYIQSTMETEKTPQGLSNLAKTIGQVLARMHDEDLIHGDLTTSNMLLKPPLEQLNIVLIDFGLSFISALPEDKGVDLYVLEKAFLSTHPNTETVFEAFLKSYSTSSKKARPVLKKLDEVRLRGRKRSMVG
B6: UBX domain-containing protein 2B (Homo sapiens), Q14CS0 (parent)
chain: MAEGGGPEPGEQERRSSGPRPPSARDLQLALAELYEDEVKCKSSKSNRPKATVFKSPRTPPQRFYSSEHEYSGLNIVRPSTGKIVNELFKEAREHGAVPLNEATRASGDDKSKSFTGGGYRLGSSFCKRSEYIYGENQLQDVQILLKLWSNGFSLDDGELRPYNEPTNAQFLESVKRGEIPLELQRLVHGGQVNLDMEDHQDQEYIKPRLRFKAFSGEGQKLGSLTPEIVSTPSSPEEEDKSILNAVVLIDDSVPTTKIQIRLADGSRLIQRFNSTHRILDVRNFIVQSRPEFAALDFILVTSFPNKELTDESLTLLEADILNTVLLQQLK
partner: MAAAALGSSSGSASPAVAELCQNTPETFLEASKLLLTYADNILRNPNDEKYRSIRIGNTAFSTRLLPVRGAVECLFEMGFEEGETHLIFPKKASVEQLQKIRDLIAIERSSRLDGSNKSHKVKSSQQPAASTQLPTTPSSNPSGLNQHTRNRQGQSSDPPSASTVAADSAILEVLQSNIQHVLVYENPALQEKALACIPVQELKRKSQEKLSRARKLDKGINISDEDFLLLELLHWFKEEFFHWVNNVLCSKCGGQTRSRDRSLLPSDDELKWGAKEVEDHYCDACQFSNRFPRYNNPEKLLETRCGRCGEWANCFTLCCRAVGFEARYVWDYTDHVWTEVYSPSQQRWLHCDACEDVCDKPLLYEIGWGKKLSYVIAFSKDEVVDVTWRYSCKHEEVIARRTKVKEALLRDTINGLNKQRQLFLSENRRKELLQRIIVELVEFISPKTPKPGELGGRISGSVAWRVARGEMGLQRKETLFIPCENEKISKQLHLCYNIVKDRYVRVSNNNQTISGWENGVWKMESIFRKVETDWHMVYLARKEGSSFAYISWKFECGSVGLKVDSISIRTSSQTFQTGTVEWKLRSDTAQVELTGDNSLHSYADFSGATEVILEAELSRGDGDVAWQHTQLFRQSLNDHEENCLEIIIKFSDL
B7: Microtubule-associated tumor suppressor candidate 2 (Homo sapiens), Q5JR59-3 (parent)
chain: B5 chain
partner: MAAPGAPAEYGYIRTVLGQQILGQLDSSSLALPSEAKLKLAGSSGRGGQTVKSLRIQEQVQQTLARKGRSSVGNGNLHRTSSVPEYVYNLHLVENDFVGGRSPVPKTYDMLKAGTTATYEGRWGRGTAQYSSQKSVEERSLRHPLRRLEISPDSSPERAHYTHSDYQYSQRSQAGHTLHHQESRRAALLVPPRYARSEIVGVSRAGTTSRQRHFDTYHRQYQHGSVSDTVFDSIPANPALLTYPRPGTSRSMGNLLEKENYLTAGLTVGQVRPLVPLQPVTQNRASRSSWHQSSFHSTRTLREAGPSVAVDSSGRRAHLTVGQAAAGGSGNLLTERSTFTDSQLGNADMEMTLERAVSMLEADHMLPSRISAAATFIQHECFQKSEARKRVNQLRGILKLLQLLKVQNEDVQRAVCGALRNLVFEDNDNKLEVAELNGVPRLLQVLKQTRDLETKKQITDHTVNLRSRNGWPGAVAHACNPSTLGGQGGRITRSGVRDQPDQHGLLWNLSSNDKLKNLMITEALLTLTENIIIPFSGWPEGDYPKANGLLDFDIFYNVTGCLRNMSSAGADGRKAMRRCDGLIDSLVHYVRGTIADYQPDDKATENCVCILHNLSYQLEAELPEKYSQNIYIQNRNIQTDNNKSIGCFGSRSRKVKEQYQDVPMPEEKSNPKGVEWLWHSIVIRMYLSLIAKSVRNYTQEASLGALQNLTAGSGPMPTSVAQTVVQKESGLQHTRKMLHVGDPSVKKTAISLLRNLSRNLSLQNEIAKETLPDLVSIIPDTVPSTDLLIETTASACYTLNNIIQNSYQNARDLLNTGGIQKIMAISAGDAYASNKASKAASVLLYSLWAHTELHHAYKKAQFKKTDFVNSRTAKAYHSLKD
B8: Zinc finger CCHC domain-containing protein 10 (Homo sapiens), Q8TBK6 (parent)
chain: MATPMHRLIARRQAFDTELQPVKTFWILIQPSIVISEANKQHVRCQKCLEFGHWTYECTGKRKYLHRPSRTAELKKALKEKENRLLLQQSIGETNVERKAKKKRSKSVTSSSSSSSDSSASDSSSESEETSTSSSSEDSDTDESSSSSSSSASSTTSSSSSDSDSDSSSSSSSSTSTDSSSDDEPPKKKKKK
partner: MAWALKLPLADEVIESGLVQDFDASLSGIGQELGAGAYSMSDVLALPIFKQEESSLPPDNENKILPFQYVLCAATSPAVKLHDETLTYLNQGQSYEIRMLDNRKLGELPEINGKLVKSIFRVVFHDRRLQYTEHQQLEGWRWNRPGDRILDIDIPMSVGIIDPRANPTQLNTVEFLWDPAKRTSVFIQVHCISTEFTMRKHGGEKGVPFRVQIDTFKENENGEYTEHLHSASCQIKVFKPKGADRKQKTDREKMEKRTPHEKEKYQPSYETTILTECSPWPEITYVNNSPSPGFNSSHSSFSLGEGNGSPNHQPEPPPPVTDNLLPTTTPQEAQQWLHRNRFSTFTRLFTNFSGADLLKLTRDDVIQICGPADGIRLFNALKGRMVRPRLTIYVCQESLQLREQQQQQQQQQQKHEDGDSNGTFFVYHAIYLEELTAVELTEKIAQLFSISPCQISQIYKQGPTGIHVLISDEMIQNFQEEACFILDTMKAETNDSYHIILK

One test covers variants of B1. The conditions noted are these: with ssna1_human SSNA1, O43805.
L67W: the “effect of a mutation on the interaction” value is “disrupting interaction strength”.

In a further test the parent is B2. The conditions noted are these: with iho1_human IHO1, Q8IYA8.
Consider H287N, for which the “effect of a mutation on the interaction” value is given as “with no effect”.
For R175Q, the “effect of a mutation on the interaction” value is given as “with no effect”.

Another test covers variants of B3. The conditions noted are these: with mdfi_human MDFI.
As to S135C, the “effect of a mutation on the interaction” value is “with no effect”.
For the variant P183T, the “effect of a mutation on the interaction” value is on record as “with no effect”.

In the next test the parent is B4. The conditions noted are these: with lura1_human LURAP1, Q96LR2.
For the variant T361A, the “effect of a mutation on the interaction” value is reported as “with no effect”.
With T523I, the “effect of a mutation on the interaction” value is reported as “with no effect”.

A further test covers variants of B5. The conditions noted are these: with prpk_human TP53RK.
For the variant A89V, the “effect of a mutation on the interaction” value is “with no effect”.

Variants of B6 are the subject of another test. The conditions noted are these: with ngly1_human NGLY1, Q96IV0.
On to D109A, for which the “effect of a mutation on the interaction” value was “with no effect”.

The variants in the next test derive from B7. The conditions noted are these: with pkp2_human PKP2, Q99959.
Regarding A89V, the “effect of a mutation on the interaction” value was “with no effect”.

Another test covers variants of B8. The conditions noted are these: with tfcp2_human TFCP2, Q12800.
For S153P, the “effect of a mutation on the interaction” value is on record as “with no effect”.
